Measurements published in paper PMC4242836 (The Journal of Cell Biology, 2014).

Molecular target: T1, Snu13p (S. cerevisiae, UniProt P39990 1-126)
T1 sequence: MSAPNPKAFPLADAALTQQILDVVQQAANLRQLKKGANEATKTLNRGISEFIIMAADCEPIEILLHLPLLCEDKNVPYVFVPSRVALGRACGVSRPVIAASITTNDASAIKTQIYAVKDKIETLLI
Assay: crystal structure

binding result: binds
B1: Rsa1_(238–290) (domain or fragment)
chain: TDEDVKKWREERKKMWLLKISNNKQKHMQEMGIKEDELKSQPSIFKESRKEKQ
